This data set concerns Escherichia coli TOP10. The data set is described as follows: shrunken log2 fold change of peptide-encoding DNA abundance (4.5 h post-induction vs induction); higher = less antimicrobial activity (less host growth inhibition). As to conditions: time post-induction: 4.5 h; library: site-saturation at positions 5, 18, 19, 20.
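Note: peptides expressed intracellularly from a pBAD plasmid library in pooled LB shake-flask culture, induced with 0.3% L-arabinose, DNA abundance read by NGS, three biological replicates, DESeq2 with apeglm shrinkage.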

With RRIRNRPPRLPRPRPRPNGTPRP, the “shrunken log2 fold change” value is -0.167.
For RRIRTRPPRLPRPRPRPTWSPRP, the “shrunken log2 fold change” value stood at 0.256.
In the case of RRIRTRPPRLPRPRPRPGAHPRP, the “shrunken log2 fold change” value is 0.0457.
In the case of RRIRIRPPRLPRPRPRPTWPPRP, the “shrunken log2 fold change” value is 0.368.
In the case of RRIRYRPPRLPRPRPRPLKIPRP it was -0.134; in that of RRIRNRPPRLPRPRPRPEFHPRP, -0.0541; in that of RRIRLRPPRLPRPRPRPDRRPRP, 0.0766.
Next, RRIRVRPPRLPRPRPRPSLIPRP: -0.238; RRIRKRPPRLPRPRPRPTCMPRP: 0.576; RRIRRRPPRLPRPRPRPFWKPRP: 0.111.
As to RRIRIRPPRLPRPRPRPLFGPRP, the “shrunken log2 fold change” value was -0.102.
Next, RRIRRRPPRLPRPRPRPNMVPRP: -0.0449.
RRIRGRPPRLPRPRPRPEYQPRP: the “shrunken log2 fold change” value came out at 0.416.
Take RRIRVRPPRLPRPRPRPWELPRP: the “shrunken log2 fold change” value is -0.487.
On to RRIRDRPPRLPRPRPRPACFPRP, for which the “shrunken log2 fold change” value was 0.664.
As for RRIRARPPRLPRPRPRPYCAPRP, the “shrunken log2 fold change” value was -0.277.
In the case of RRIRRRPPRLPRPRPRPGDDPRP it was 0.362; in that of RRIRHRPPRLPRPRPRPNMAPRP, -0.0808.
Regarding RRIRHRPPRLPRPRPRPKCDPRP, the “shrunken log2 fold change” value is -0.0608.
In the case of RRIRCRPPRLPRPRPRPLGWPRP it was 0.506; in that of RRIRYRPPRLPRPRPRPSFNPRP, -0.756.
In the case of RRIRCRPPRLPRPRPRPAYTPRP it was -0.305; in that of RRIRWRPPRLPRPRPRPKSGPRP, -0.0248; in that of RRIRWRPPRLPRPRPRPFSSPRP, -0.374.
RRIRYRPPRLPRPRPRPHNNPRP: the “shrunken log2 fold change” value is -1.16.
In the case of RRIRDRPPRLPRPRPRPYQCPRP it was -0.00205.
As to RRIRRRPPRLPRPRPRPNNRPRP, the “shrunken log2 fold change” value was -0.0987.
Next, RRIRQRPPRLPRPRPRPVHDPRP: 0.0147.
In the case of RRIRIRPPRLPRPRPRPMFEPRP it was -0.0768; in that of RRIRGRPPRLPRPRPRPNKVPRP, 0.0962.
In the case of RRIRQRPPRLPRPRPRPLKFPRP, the “shrunken log2 fold change” value was -0.27.
For RRIRERPPRLPRPRPRPHCSPRP, the “shrunken log2 fold change” value is -0.279.
With RRIRPRPPRLPRPRPRPSGVPRP, the “shrunken log2 fold change” value was -0.0831.
On to RRIRWRPPRLPRPRPRPASIPRP, for which the “shrunken log2 fold change” value was -0.336.
Turning to RRIRIRPPRLPRPRPRPAPVPRP, the “shrunken log2 fold change” value came out at 0.171.
In the case of RRIRARPPRLPRPRPRPPIFPRP it was 0.25; in that of RRIRPRPPRLPRPRPRPTAWPRP, 0.666.
Regarding RRIRVRPPRLPRPRPRPSEHPRP, the “shrunken log2 fold change” value is -0.779.
In the case of RRIRIRPPRLPRPRPRPYYYPRP, the “shrunken log2 fold change” value was -1.08.
In the case of RRIRNRPPRLPRPRPRPDYIPRP it was -0.104.
Next, RRIRTRPPRLPRPRPRPIMSPRP: -0.152; RRIRYRPPRLPRPRPRPNMAPRP: -0.00884.
Next, RRIRCRPPRLPRPRPRPIMTPRP: -0.00708; RRIRARPPRLPRPRPRPNRKPRP: 0.131.
With RRIRPRPPRLPRPRPRPDNPPRP, the “shrunken log2 fold change” value is -0.00669.
As for RRIRMRPPRLPRPRPRPECQPRP, the “shrunken log2 fold change” value turned out to be 3.29.
In the case of RRIRYRPPRLPRPRPRPCMDPRP it was -0.214; in that of RRIRTRPPRLPRPRPRPVNSPRP, -0.342.
Turning to RRIRTRPPRLPRPRPRPGVFPRP, the “shrunken log2 fold change” value was -0.0409.
On to RRIRGRPPRLPRPRPRPFLVPRP, for which the “shrunken log2 fold change” value was -0.0616.
In the case of RRIRWRPPRLPRPRPRPEPYPRP, the “shrunken log2 fold change” value is 0.0876.
Regarding RRIRLRPPRLPRPRPRPTTNPRP, the “shrunken log2 fold change” value was -0.0886.
In the case of RRIRNRPPRLPRPRPRPGHDPRP, the “shrunken log2 fold change” value was determined as 0.0277.
In the case of RRIRQRPPRLPRPRPRPRQTPRP it was 0.161; in that of RRIRIRPPRLPRPRPRPHAAPRP, -0.298; in that of RRIRQRPPRLPRPRPRPVLEPRP, 0.198.
Next, RRIRVRPPRLPRPRPRPPIVPRP: 0.0432.
For the sequence RRIRIRPPRLPRPRPRPHAIPRP, the “shrunken log2 fold change” value was -0.21.
Next, RRIRARPPRLPRPRPRPIVPPRP: 0.0453; RRIRDRPPRLPRPRPRPKQKPRP: 0.03.
In the case of RRIRNRPPRLPRPRPRPTYMPRP it was -0.596; in that of RRIRQRPPRLPRPRPRPEEHPRP, -0.0135.
In the case of RRIRQRPPRLPRPRPRPNQIPRP it was -0.371; in that of RRIRVRPPRLPRPRPRPHHEPRP, -0.582; in that of RRIRKRPPRLPRPRPRPRDKPRP, 0.116.
In the case of RRIRSRPPRLPRPRPRPQAAPRP, the “shrunken log2 fold change” value came out at 0.544.
In the case of RRIRHRPPRLPRPRPRPNWYPRP it was -0.928.
Consider RRIRLRPPRLPRPRPRPHCQPRP, for which the “shrunken log2 fold change” value was -0.0416.
In the case of RRIRCRPPRLPRPRPRPFCWPRP it was 0.31; in that of RRIRPRPPRLPRPRPRPKHDPRP, -0.0113.
In the case of RRIRARPPRLPRPRPRPYMSPRP, the “shrunken log2 fold change” value came to 0.00296.
Next, RRIRDRPPRLPRPRPRPYALPRP: -0.051.
In the case of RRIRERPPRLPRPRPRPHHTPRP it was -0.268.
Next, RRIRDRPPRLPRPRPRPMMTPRP: 0.395; RRIRGRPPRLPRPRPRPVTPPRP: 1.24.
Take RRIRSRPPRLPRPRPRPFQKPRP: the “shrunken log2 fold change” value was -0.00295.
Consider RRIRERPPRLPRPRPRPYFIPRP, for which the “shrunken log2 fold change” value is -1.17.
In the case of RRIRHRPPRLPRPRPRPTGAPRP it was 0.0132; in that of RRIRNRPPRLPRPRPRPEEPPRP, 0.0512.
For RRIRGRPPRLPRPRPRPRICPRP, the “shrunken log2 fold change” value was determined as 0.335.
Next, RRIRARPPRLPRPRPRPNWNPRP: -0.0314; RRIRCRPPRLPRPRPRPCMMPRP: -0.914; RRIRWRPPRLPRPRPRPDWPPRP: 0.332.
In the case of RRIRFRPPRLPRPRPRPPFCPRP it was 0.0782.
In the case of RRIRPRPPRLPRPRPRPDKFPRP it was -0.233; in that of RRIRDRPPRLPRPRPRPDEIPRP, 0.0508.
Regarding RRIRLRPPRLPRPRPRPEHIPRP, the “shrunken log2 fold change” value came out at 0.0843.
Next, RRIRIRPPRLPRPRPRPQHEPRP: -0.262; RRIRCRPPRLPRPRPRPSHGPRP: -0.33.
In the case of RRIRLRPPRLPRPRPRPIQYPRP it was 0.147; in that of RRIRYRPPRLPRPRPRPHTHPRP, -1.17; in that of RRIRMRPPRLPRPRPRPEFCPRP, 1.18.
In the case of RRIRERPPRLPRPRPRPFIGPRP it was -0.0528.
For the sequence RRIRTRPPRLPRPRPRPVYMPRP, the “shrunken log2 fold change” value is -0.382.
As for RRIRIRPPRLPRPRPRPLMQPRP, the “shrunken log2 fold change” value was -0.564.
In the case of RRIRNRPPRLPRPRPRPQNTPRP it was -0.589.
In the case of RRIRERPPRLPRPRPRPLELPRP it was 0.086; in that of RRIRDRPPRLPRPRPRPYCCPRP, -0.151.
Next, RRIRSRPPRLPRPRPRPLNKPRP: -0.343.
For the sequence RRIRCRPPRLPRPRPRPSKQPRP, the “shrunken log2 fold change” value was -0.209.
For RRIRMRPPRLPRPRPRPHSEPRP, the “shrunken log2 fold change” value came to 0.134.
Regarding RRIRIRPPRLPRPRPRPRLPPRP, the “shrunken log2 fold change” value was 0.161.
Next, RRIRLRPPRLPRPRPRPSNQPRP: -1.04; RRIRLRPPRLPRPRPRPPECPRP: -0.29.
For the sequence RRIRWRPPRLPRPRPRPKIVPRP, the “shrunken log2 fold change” value was -0.272.
As for RRIRTRPPRLPRPRPRPRYDPRP, the “shrunken log2 fold change” value is -0.123.
In the case of RRIRDRPPRLPRPRPRPRPWPRP it was 0.25; in that of RRIRGRPPRLPRPRPRPYWPPRP, 0.0961.
Take RRIRNRPPRLPRPRPRPGIEPRP: the “shrunken log2 fold change” value is -0.0795.
In the case of RRIRGRPPRLPRPRPRPFGWPRP it was 0.741; in that of RRIRMRPPRLPRPRPRPAWVPRP, 0.375.
As for RRIRIRPPRLPRPRPRPRSRPRP, the “shrunken log2 fold change” value came to 0.0781.
Turning to RRIRSRPPRLPRPRPRPRHRPRP, the “shrunken log2 fold change” value was 0.121.
With RRIRHRPPRLPRPRPRPNTEPRP, the “shrunken log2 fold change” value is -0.038.
In the case of RRIRIRPPRLPRPRPRPAFGPRP it was 0.209.
Take RRIRFRPPRLPRPRPRPNEKPRP: the “shrunken log2 fold change” value came out at 0.0854.
Take RRIRFRPPRLPRPRPRPWRTPRP: the “shrunken log2 fold change” value was -0.0041.
RRIRNRPPRLPRPRPRPKAEPRP: the “shrunken log2 fold change” value was determined as 0.153.
Next, RRIRIRPPRLPRPRPRPVCFPRP: -0.256; RRIRLRPPRLPRPRPRPDVFPRP: -0.165; RRIRGRPPRLPRPRPRPGVLPRP: 0.912.
In the case of RRIRSRPPRLPRPRPRPFAYPRP it was -0.348; in that of RRIRHRPPRLPRPRPRPSHYPRP, 0.288.
For RRIRGRPPRLPRPRPRPERWPRP, the “shrunken log2 fold change” value came to 1.19.
Next, RRIRTRPPRLPRPRPRPMLMPRP: -0.248.

For the origin of these results see the supplement of paper PMC9112550, “Optimization of the antimicrobial peptide Bac7 by deep mutational scanning” (BMC Biology, 2022).
